# Laboratory results published in patent publication US9981005B2, “Methods for increasing DISC1 in a subject with schizophrenia or bipolar disorder by an antagonist inhibiting DISC1 binding to FBXW7” (The University Court of the University of Glasgow, priority 2013, dated 2018).
# “Also recorded” adds a separate entry of the source. Where no end group is shown, it is not given here. [ ]: non-standard residue; d: D form. pT = C[C@@H](OP(=O)(O)O)[C@H](N)C(=O)O; NMeE = CN[C@@H](CCC(=O)O)C(=O)O; pS = N[C@@H](COP(=O)(O)O)C(=O)O; NMeD = CN[C@@H](CC(=O)O)C(=O)O
# Target: FBXW7 (Homo sapiens, UniProt Q969H0)
# Sequence (Q969H0 whole entry): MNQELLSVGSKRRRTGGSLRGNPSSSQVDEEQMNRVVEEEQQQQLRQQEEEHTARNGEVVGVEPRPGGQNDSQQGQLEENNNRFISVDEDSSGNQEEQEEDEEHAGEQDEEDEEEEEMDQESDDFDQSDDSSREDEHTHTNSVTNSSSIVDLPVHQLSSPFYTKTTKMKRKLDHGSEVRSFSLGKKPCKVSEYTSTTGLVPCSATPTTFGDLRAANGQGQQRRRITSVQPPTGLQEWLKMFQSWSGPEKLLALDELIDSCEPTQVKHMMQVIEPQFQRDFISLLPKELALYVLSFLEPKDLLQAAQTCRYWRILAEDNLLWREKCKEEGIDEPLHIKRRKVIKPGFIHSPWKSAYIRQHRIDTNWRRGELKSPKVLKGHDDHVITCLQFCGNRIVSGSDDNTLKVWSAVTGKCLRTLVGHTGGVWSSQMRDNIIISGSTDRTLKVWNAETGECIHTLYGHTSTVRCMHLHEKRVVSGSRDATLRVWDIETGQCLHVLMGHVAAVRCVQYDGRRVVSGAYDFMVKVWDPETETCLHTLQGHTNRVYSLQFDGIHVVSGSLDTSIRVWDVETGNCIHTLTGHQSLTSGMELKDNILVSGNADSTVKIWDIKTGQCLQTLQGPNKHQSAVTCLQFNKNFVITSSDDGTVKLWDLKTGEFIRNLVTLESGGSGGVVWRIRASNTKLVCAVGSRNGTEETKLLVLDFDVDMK
# Experiment: Peptides immobilised on membranes screened for the ability to bind FBXW7
# Type: binding
# Conditions: not given
# Description: Peptides derived from DISC1 and containing the putative phospho-degron motif were immobilised on membranes and screened for the ability to bind FBXW7. […] (SEQ ID NO: 114).
# The 7-mer peptide P-pT-P-P-G-pS-H (SEQ ID NO: 21) was used as the basis for further investigation. L- and D-forms of aspartic acid and glutamic acid (upper and lower case letters respectively) as well as N-methylated versions of each (designated “m”) were incorporated at positions 198 and 202.
row,Substance,binding to FBXW7
1,a-d-P-P-a-mE-k ([dA][dD]PP[dA][NMeE][dK]) [Peptide A197],retain or have improved binding to FBXW7
2,P-pT-P-P-G-pS-H [A80] (P[pT]PPG[pS]H) [Peptide A80],retain or have improved binding to FBXW7
3,a-d-P-P-G-mE-h ([dA][dD]PPG[NMeE][dH]) [Peptide A164],retain or have improved binding to FBXW7
4,P-E-P-P-G-mD (PEPPG[NMeD]) [Peptide A144],retain or have improved binding to FBXW7
5,P-d-P-P-G-mE-k (P[dD]PPG[NMeE][dK]) [Peptide A195],retain or have improved binding to FBXW7
6,G-mD-P-P-G-mE-H (G[NMeD]PPG[NMeE]H) [Peptide 142],retain or have improved binding to FBXW7
7,L-d-P-P-G-mE-H (L[dD]PPG[NMeE]H) [Peptide A98],retain or have improved binding to FBXW7
8,a-d-P-P-a-mE-H ([dA][dD]PP[dA][NMeE]H) [Peptide A166],retain or have improved binding to FBXW7
9,P-d-P-P-G-mE-H (P[dD]PPG[NMeE]H) [Peptide 82],retain or have improved binding to FBXW7
10,G-d-P-P-q-mE-H (G[dD]PP[dQ][NMeE]H) [Peptide A13],retain or have improved binding to FBXW7
11,P-e-p-P-G-mE-H (P[dE][dP]PG[NMeE]H) [Peptide A136],retain or have improved binding to FBXW7
12,a-e-P-P-G-mE-H ([dA][dE]PPG[NMeE]H) [Peptide A130],retain or have improved binding to FBXW7
13,GPEVPPTPPGSHSAFTSSFSFIRL (listed as Homo sapiens),Detectable binding
14,P-pT-P-P-G-pS-H-S (P[pT]PPG[pS]HS),retain the ability to bind FBXW7
15,G-e-P-P-G-mE (G[dE]PPG[NMeE]) [Peptide A25],retain or have improved binding to FBXW7
16,G-mD-P-p-G-mE-H (G[NMeD]P[dP]G[NMeE]H) [Peptide A56],retain or have improved binding to FBXW7
17,G-d-P-a-G-mE-k (G[dD]P[dA]G[NMeE][dK]) [Peptide A193],retain or have improved binding to FBXW7
18,G-d-p-p-a-mE-h (G[dD][dP][dP][dA][NMeE][dH]) [Peptide A175],retain or have improved binding to FBXW7
19,L-e-P-P-G-mE-H (L[dE]PPG[NMeE]H) [Peptide A137],retain or have improved binding to FBXW7
20,P-e-P-P-G-mE-H (P[dE]PPG[NMeE]H) [Peptide 55],retain or have improved binding to FBXW7
21,P-E-P-P-Q-mD-H (PEPPQ[NMeD]H) [Peptide A151],retain or have improved binding to FBXW7
22,L-mD-P-P-G-mE-H (L[NMeD]PPG[NMeE]H) [Peptide A58],retain or have improved binding to FBXW7
23,p-d-P-P-G-mE-h ([dP][dD]PPG[NMeE][dH]) [Peptide A184],retain or have improved binding to FBXW7
24,G-d-P-p-a-mE-h (G[dD]P[dP][dA][NMeE][dH]) [Peptide A171],retain or have improved binding to FBXW7

row,Substance,binding to FBXW7
1,P-e-P-P-q-mE-H (P[dE]PP[dQ][NMeE]H) [Peptide A132],retain or have improved binding to FBXW7
2,G-mD-P-P-Q-mE-H (G[NMeD]PPQ[NMeE]H) [Peptide A52],retain or have improved binding to FBXW7
3,l-mE-P-P-G-mE-H ([dL][NMeE]PPG[NMeE]H) [Peptide A79],retain or have improved binding to FBXW7
4,P-A-P-P-G-mD-H (PAPPG[NMeD]H) [Peptide A102],retain or have improved binding to FBXW7
5,a-d-p-P-G-mE-H ([dA][dD][dP]PG[NMeE]H) [Peptide A162],retain or have improved binding to FBXW7
6,P-d-P-P-G-mE-K (P[dD]PPG[NMeE]K) [Peptide A194],retain or have improved binding to FBXW7
7,G-mE-P-P-q-mE-H (G[NMeE]PP[dQ][NMeE]H) [Peptide A73],retain or have improved binding to FBXW7
8,P-pT-P-P-G-pS-H [A185] (P[pT]PPG[pS]H) [Peptide A185],retain or have improved binding to FBXW7
9,p-d-P-P-G-mE-H ([dP][dD]PPG[NMeE]H) [Peptide A181],retain or have improved binding to FBXW7
10,G-e-P-P-G-mE-H (G[dE]PPG[NMeE]H) [Peptide 147],retain or have improved binding to FBXW7
11,P-pT-P-P-G-pS-H [A139] (P[pT]PPG[pS]H) [Peptide A139],retain or have improved binding to FBXW7
12,l-d-P-P-G-mE-H ([dL][dD]PPG[NMeE]H) [Peptide A99],retain or have improved binding to FBXW7
13,G-d-P-A-G-mE-K (G[dD]PAG[NMeE]K) [Peptide A192],retain or have improved binding to FBXW7
14,G-d-P-P-Q-mE-H (G[dD]PPQ[NMeE]H) [Peptide A12],retain or have improved binding to FBXW7
15,P-A-P-P-G-mE-H (PAPPG[NMeE]H) [Peptide A82],retain or have improved binding to FBXW7
16,P-e-P-p-G-mE-H (P[dE]P[dP]G[NMeE]H) [Peptide A135],retain or have improved binding to FBXW7
17,a-mE-P-P-G-mE-H ([dA][NMeE]PPG[NMeE]H) [Peptide A71],retain or have improved binding to FBXW7
18,G-d-P-P-G-mE [Peptide A5],retain or have improved binding to FBXW7
19,l-e-P-P-G-mE-H ([dL][dE]PPG[NMeE]H) [Peptide A138],retain or have improved binding to FBXW7
20,P-d-P-P-G-mE (P[dD]PPG[NMeE]) [Peptide A85],retain or have improved binding to FBXW7
21,G-mE-P-P-G-mE-H (G[NMeE]PPG[NMeE]H) [Peptide 139],retain or have improved binding to FBXW7
22,G-d-P-P-G-mE-H (G[dD]PPG[NMeE]H) [Peptide 173],retain or have improved binding to FBXW7
23,a-d-P-p-a-mE-h ([dA][dD]P[dP][dA][NMeE][dH]) [Peptide A168],retain or have improved binding to FBXW7

# System: FBXW7 substrates Notch-1, c-Myc, c-Jun and cyclinE
# Experiment: Expression levels of other FBXW7 substrates after peptide treatment, Western blot
# Type: cell-based, human
# Conditions: FIG. 11, specificity for the FBXW7-DISC1 interaction
# Procedure: (§1) Lysates were boiled in Laemmli buffer for 2 minutes prior to SDS-PAGE. Lysates were loaded on to a precast 4-12% bis-tris gel (˜10 μg/well). Gels were resolved at 150V (constant) for 90 mins. Proteins were transferred to nitrocellulose membrane at 30V for 1 hour. Membranes were blocked in 5% Milk in 1×TBS-tween20 for 1 hour at room temperature. Primary antibodies were diluted in 1% milk in 1×TBS-tween20 and incubated overnight at 4° C. Membranes were washed three times with 1×TBS-tween20 and the appropriate secondary antibody (diluted using 1% milk in 1×TBS-tween20) was added for 45 mins at room temperature. Membranes were washed a further three times with 1×TBS-tween20 and once in 1×TBS. Protein bands were visulised using the Licor Odyssey scanner and analysed using Odyssey software (version 1.2). DISC-1 protein levels were analysed by densitometry and normalised against those of the loading control (GAPDH).
row,Substance,"effect on expression levels of the other FBXW7 substrates Notch-1, c-Myc, c-Jun and cyclinE"
1,G-mD-P-P-G-mE-H (G[NMeD]PPG[NMeE]H) [Peptide 142],do not upregulate other FBXW7 substrates; also recorded: no effect
2,G-mE-P-P-G-mE-H (G[NMeE]PPG[NMeE]H) [Peptide 139],do not upregulate other FBXW7 substrates; also recorded: no effect

# System: DISC1 expression in HEK293 cells
# Experiment: DISC1 expression in HEK293 cells treated with cell-permeable peptides, quantitative Western blotting
# Type: cell-based, human
# Conditions: cell-permeable (N-terminal stearate) peptides at 100 μM, 0, 1, 2, 3 and 6 hours, FIG. 9
# Procedure: Peptides modified at the N-terminal amino group with stearate moieties to render them cell permeable (Severn Biotech Ltd) were dissolved in sterile DMSO at a stock concentration of 100 mM.
# HEK293 cells were seeded into 6 well plates and cultured until 70-80% confluent. Cell permeable peptides 139 and 142 were added at 100 μM. Cells were incubated at 37° C./5% C02. Cells were taken at 0, 1, 2, 3 and 6 hours post peptide addition. After treatment cells were washed briefly with ice cold PBS and lysed on ice using 3T3 lysis buffer (20 mM Hepes (pH 7.4), 50 mM NaCl, 50 mM NaF, 10% (v/v) glycerol, 1% (w/v) Triton X-100, 10 mM EGTA, 30 mM sodium pyrophosphate) containing protease and phosphatase inhibitors. Protein concentrations were assessed using Bradford assay. Cell lysates were separated by SDS-PAGE and levels of DISC1 expression determined by quantitative Western blotting using the Licor Odyssey imaging system. GAPDH was used as a control to confirm equal loading.
# In a similar experiment, HEK293 were seeded into 6 well plates and cultured until 70-80% confluent. Cell-permeable peptides 139 and 142 were added over a concentration range: 10 μM, 30 μM, 50 μM, 100 μM in duplicate. Cells were incubated at 37° C./5% C02 for 3 hours. […] After treatment cells were washed briefly with ice cold PBS and lysed on ice as described above.
# as §1, with “Membranes were washed three times with 1×TBS-tween20 and the appropriate secondary antibody (diluted using 1% milk in 1×TBS-tween20) was added for 45 mins at room temperature. Membranes were washed a further three times with 1×TBS-tween20 and once in 1×TBS.” left out
row,Substance,"DISC1 up-regulation, time course"
1,G-mD-P-P-G-mE-H (G[NMeD]PPG[NMeE]H) [Peptide 142],Up-Regulate DISC1 Expression
2,G-mE-P-P-G-mE-H (G[NMeE]PPG[NMeE]H) [Peptide 139],Up-Regulate DISC1 Expression

# Same assay, conditions: cell-permeable peptides at 10 μM, 30 μM, 50 μM, 100 μM, 3 hours, FIG. 10
row,Substance,"DISC1 up-regulation, dose dependence"
1,G-mE-P-P-G-mE-H (G[NMeE]PPG[NMeE]H) [Peptide 139],dose-dependent
